{"source": "patent US7740850B2", "about": "“PDGFRβ-specific antibodies” (ImClone, LLC, priority 2007, dated 2010)", "key": {"mPDGFRβ": {"target": "mPDGFRβ (Mus musculus, UniProt P05622)", "sequence (P05622 32-1098)": "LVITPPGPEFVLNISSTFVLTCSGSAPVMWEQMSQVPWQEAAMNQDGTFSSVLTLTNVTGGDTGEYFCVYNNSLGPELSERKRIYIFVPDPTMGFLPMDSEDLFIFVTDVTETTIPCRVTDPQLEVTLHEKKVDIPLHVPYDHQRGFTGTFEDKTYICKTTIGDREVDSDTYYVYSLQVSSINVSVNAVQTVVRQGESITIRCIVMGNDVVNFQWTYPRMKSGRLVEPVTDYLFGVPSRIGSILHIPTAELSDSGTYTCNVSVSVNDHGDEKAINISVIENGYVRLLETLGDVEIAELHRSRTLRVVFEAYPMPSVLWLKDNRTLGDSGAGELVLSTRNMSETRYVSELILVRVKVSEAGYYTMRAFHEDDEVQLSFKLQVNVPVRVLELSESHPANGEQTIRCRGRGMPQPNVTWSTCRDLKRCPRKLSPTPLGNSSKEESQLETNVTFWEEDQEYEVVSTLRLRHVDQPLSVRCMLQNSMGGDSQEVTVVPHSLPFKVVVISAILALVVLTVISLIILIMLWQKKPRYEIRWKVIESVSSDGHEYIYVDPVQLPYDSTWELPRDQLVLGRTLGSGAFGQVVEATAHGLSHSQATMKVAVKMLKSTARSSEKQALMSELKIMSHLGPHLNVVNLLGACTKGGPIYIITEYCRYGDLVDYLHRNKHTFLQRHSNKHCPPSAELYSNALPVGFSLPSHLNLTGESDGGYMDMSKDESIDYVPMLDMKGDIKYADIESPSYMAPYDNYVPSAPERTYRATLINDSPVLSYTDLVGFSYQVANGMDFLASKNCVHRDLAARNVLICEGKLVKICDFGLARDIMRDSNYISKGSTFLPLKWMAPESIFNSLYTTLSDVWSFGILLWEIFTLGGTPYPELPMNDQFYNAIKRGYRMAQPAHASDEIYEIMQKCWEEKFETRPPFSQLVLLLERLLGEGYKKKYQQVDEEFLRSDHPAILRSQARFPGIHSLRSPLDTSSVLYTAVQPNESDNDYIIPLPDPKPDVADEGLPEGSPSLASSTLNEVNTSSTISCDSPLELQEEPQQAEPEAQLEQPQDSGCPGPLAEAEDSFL", "test": "Antibody affinity determination (BIAcore, surface plasmon resonance)", "type": "binding", "method": "Antibody affinity determination. The binding kinetics of various Fab and IgG to mPDGFRβ were measured using a BIAcore 3000 biosensor (BIACORE, Inc., Uppsala, Sweden). Briefly, mPDGFRβ was immobilized onto a sensor chip and soluble antibodies were injected at concentrations ranging from 1.5 nM to 100 nM. Sensorgrams were obtained at each concentration and were evaluated using the program, BIA Evaluation 2.0. The affinity constant, Kd, was calculated from the ratio of dissociation rate (koff)/association rate (kon) (Lu, D. et al., 2002; Zhu, Z. et al., 1998; Loizos, N. et al., 2005)."}, "[1]": {"tested_on": "OV-CAR-5 ovarian carcinoma xenograft", "test": "Subcutaneous tumor xenograft model", "type": "in vivo, mouse", "conditions": "for Tumor Volume T/C %: OVCAR-5 xenograft, monotherapy", "method": "(§1) Six xenograft models, SK-OV-3, OV-CAR-8, BxPC-3, OV-CAR-5, Caki-1 and NCI-H460 (A to F, respectively) were used to examine the effects of 1B3 on xenograft tumors in athymic nude mice. Mice with established tumors (˜250-300 mm^3) were randomly grouped and treated with 1B3, normal human IgG, or saline by intraperitoneal injection twice weekly (except for BxPC-3 model where the mice were treated three times a week) at the dose indicated. Tumor volumes were measured twice a week and are presented as mean±SEM. *1 indicates the loss of one mouse due to severe illness. 1B3 binds to mouse, but not human, PDGFRβ. Accordingly, the observed responses to treatment result from inhibition of stimulation of host cells.\n(§2) Antitumor activity of anti-mPDGFRβ antibody in tumor xenograft models. Six human xenograft tumor models, including three ovarian carcinoma (SK-OV-3, OV-CAR-5 and OV-CAR-8), one pancreatic carcinoma (BxPC3), one lung carcinoma (NCI-H460), and one kidney carcinoma (Caki-1), were used to assess the antitumor activity of 1B3 in vivo. Athymic (nu/nu) mice (female, 7-8 weeks of age) were housed for 7-10 days before xenograft implantation. Each mouse was injected subcutaneously with 3-10×10^6 cells of SK-OV-3, OVCAR-5, OVCAR-8, Caki-1, BxPC3 or NCI-H460 tumor cells. When tumors reached approximately 250-300 mm^3, mice were randomized into groups of 10 to 12 animals each and treated by intraperitoneal injection, 2 to 3 times per week, with 1B3, DC101, or 1B3 in combination with DC101. Human IgG and/or USP saline were used as control groups. Tumor sizes and mouse body weight were measured twice a week. Tumor volume was calculated using the formula: π/6×(length×width^2), where length=longest diameter and width=diameter perpendicular to length. The ratio of average tumor volume in the treatment group versus that in the control group (T/C %) was calculated. Statistic analysis was performed by Student's t-test.\n(§3) To study the antitumor effects of monotherapy with an anti-PDGFRβ antibody, mice were treated with 1B3, normal human IgG, or saline twice weekly by intraperitoneal injections. In SK-OV-3 model, tumor-bearing mice were given 1B3 at 6, 20, or 60 mg/kg dose.\n(§4) Antitumor activity of anti-PDGFRβ antibody in tumor xenograft models. The five human xenograft tumor models described above (OVCAR-5 and OVCAR-8, BxPC3, NCI-H460, and Caki-1) were used to assess the antitumor activity of 2C5 in vivo. 2C5 which binds to and inhibits human PDGFRβ receptors of the tumor and mouse receptors of the vasculature was compared to 1B3 which bound only to mouse vasculature. […] (FIG. 9; Table 2)."}, "[2]": {"tested_on": "OV-CAR-8 ovarian carcinoma xenograft", "test": "Subcutaneous tumor xenograft model", "type": "in vivo, mouse", "conditions": "for Tumor Volume T/C %: OVCAR-8 xenograft, monotherapy", "method": "as §1, §2, §3, §4"}, "[3]": {"tested_on": "BxPC-3 pancreatic carcinoma xenograft", "test": "Subcutaneous tumor xenograft model", "type": "in vivo, mouse", "conditions": "for Tumor Volume T/C %: BxPC3 xenograft, monotherapy", "method": "(§5) Six xenograft models, SK-OV-3, OV-CAR-8, BxPC-3, OV-CAR-5, Caki-1 and NCI-H460 (A to F, respectively) were used to examine the effects of 1B3 on xenograft tumors in athymic nude mice. Mice with established tumors (˜250-300 mm^3) were randomly grouped and treated with 1B3, normal human IgG, or saline by intraperitoneal injection twice weekly (except for BxPC-3 model where the mice were treated three times a week) at the dose indicated.\n(§6) Subcutaneous xenografts of BxPC-3 (A) or 5×10^6 NCI-H460 (B) were established in female athymic (nu/nu) mice. When tumors reached ˜300-350 mm^3, mice were randomized and divided into four groups (n=12), and treated with USP saline, 40 mg/kg of 1B3, 40 mg/kg of DC101 or 40 mg/kg 1B3 plus 40 mg/kg DC101, three times a week.\nas §2, with “Six” for “Antitumor activity of anti-mPDGFRβ antibody in tumor xenograft models. Six”\nas §3\n(§7) Athymic nude mice bearing xenografted tumors of 300-350 mm^3 size were randomized and divided into four treatment groups (n=12/group), and were treated by intraperitoneal injections three times a week with saline, 1B3 (40 mg/kg), DC101 (40 mg/kg), or 1B3 (40 mg/kg) plus DC101 (40 mg/kg).\n(§8) The five human xenograft tumor models described above (OVCAR-5 and OVCAR-8, BxPC3, NCI-H460, and Caki-1) were used to assess the antitumor activity of 2C5 in vivo."}, "[4]": {"tested_on": "NCI-H460 lung carcinoma xenograft", "type": "in vivo", "conditions": "for Tumor Volume T/C %: NCI-H460 xenograft, monotherapy", "method": "as §5, §6\nas §2, with “Six” for “Antitumor activity of anti-mPDGFRβ antibody in tumor xenograft models. Six”\nas §3, §7, §8"}}}
{"molecule": "1B3: human anti-mouse PDGFRβ antibody from Fab phage display library, human κ/γ1 constant regions; SEQ ID NOS in Table 1 (antibody, listed as Homo sapiens, V domains shown, human kappa/gamma1 constant regions) VH: QVQLQESGGGLVKPGGSLRLSCAASGFTFSSYSMNWVRQAPGKGLEWVSSISSSSSYIYYADSVKGRFTISRDNSKNTLYLQMNSLRAEDTAVYYCAKGGRPLLVFDFWGQGTLVTVS VL: EIVMTQSPGTLSLSPGERATLSCRASQSVSSSYLAWYQQKPGQAPRLLIYDASKRATGIPARFSGSGSGTDFTLTISTLESEDSAVYYCQQRGYWPPITFGQGTRLEIKR", "values": [{"measurement": "increase of affinity for mPDGFRβ of IgG over its Fab form", "setting": "mPDGFRβ; BIAcore", "value": "approximately 57 times"}, {"measurement": "antitumor activity", "setting": "[1]; OV-CAR-5, 40 mg/kg three times per week or 60 mg/kg twice weekly", "value": "failed to show any antitumor activity"}, {"measurement": "Tumor Volume T/C %", "setting": "[1]", "value": 92, "unit": "%"}, {"measurement": "tumor growth inhibition", "setting": "[2]; OV-CAR-8, 60 mg/kg i.p. twice weekly", "value": "almost completely blocked the growth"}, {"measurement": "Tumor Volume T/C %", "setting": "[2]", "value": 43, "unit": "%"}, {"measurement": "tumor regression, number of mice", "setting": "[3]; BxPC3, 40 mg/kg each antibody i.p. three times a week", "value": "no regressions"}, {"measurement": "antitumor activity", "setting": "[3]; BxPC3, monotherapy 40 mg/kg i.p. three times a week", "value": "failed to show any antitumor activity"}, {"measurement": "Tumor Volume T/C %", "setting": "[3]", "value": 100, "unit": "%"}, {"measurement": "T/C % on day 22 post treatment", "setting": "[4]; NCI-H460, 40 mg/kg each antibody i.p. three times a week", "value": 66, "unit": "%"}, {"measurement": "tumor growth inhibition", "setting": "[4]; NCI-H460, 60 mg/kg i.p. twice weekly", "value": "significantly slowed the growth"}, {"measurement": "Tumor Volume T/C %", "setting": "[4]", "value": 60, "unit": "%"}]}
{"molecule": "2C5: PDGFRβ-specific human antibody binding both human and murine PDGFRβ; SEQ ID NOS in Table 1 (antibody, listed as Homo sapiens, V domains shown) VH: QVQLVQSGAEVKKPGSSVKVSCKASGGTFSSYAISWVRQAPGQGLEWMGRIIPILGIANYAQKFQGRVTITADKSTSTAYMELSSLRSEDTAVYYCARDMGSRNYYYFYWGQGTLVTVSS VL: EIVLTQSPATLSLSPGERATLSCRASQSVGRYLAWYQQKPGQAPRLLIYGASNRATGIPARFSGSGSGTDFTLTISSLEPEDFAVYYCQQRSNWPLTFGGGTKVEIK", "values": [{"measurement": "Kd", "setting": "mPDGFRβ; surface plasmon resonance, one experiment", "value": 60.5, "unit": "pM"}, {"measurement": "Tumor Volume T/C %", "setting": "[1]", "value": 84, "unit": "%"}, {"measurement": "Tumor Volume T/C %", "setting": "[2]", "value": 39, "unit": "%"}, {"measurement": "Tumor Volume T/C %", "setting": "[3]", "value": 100, "unit": "%"}, {"measurement": "Tumor Volume T/C %", "setting": "[4]", "value": 60, "unit": "%"}]}
